Data taken from patent publication US20100112546A1.

Assays:
[1] = molecular target: PSA-alpha-1-antichymotrypsin (PSA-ACT) complex (UniProt P07288); assay: silicon nanowire FET (p-type), antibody on the wire; PSA-ACT 320 pg/ml
[2] = molecular target: PSA-alpha-1-antichymotrypsin (PSA-ACT) complex (UniProt P07288); assay: silicon nanowire FET (p-type), antibody on the wire; PSA-ACT 3200 pg/ml
[3] = molecular target: prostate specific antigen (PSA) (UniProt P07288); assay: silicon nanowire FET (p-type), antibody on the wire; f-PSA 0.85 pg/ml
[4] = molecular target: PSA-alpha-1-antichymotrypsin (PSA-ACT) complex (UniProt P07288); assay: silicon nanowire FET (p-type); mixture of f-PSA 8.5, PSA-ACT 320 and free Ab1 1 x 10^7 pg/ml (f-PSA blocked by Ab1)
[5] = molecular target: PSA-alpha-1-antichymotrypsin (PSA-ACT) complex (UniProt P07288); assay: silicon nanowire FET (p-type), antibody on the wire; PSA-ACT 0.32 pg/ml
[6] = molecular target: prostate specific antigen (PSA) (UniProt P07288); assay: silicon nanowire FET (p-type), antibody on the wire; f-PSA 0.085 pg/ml
[7] = molecular target: PSA-alpha-1-antichymotrypsin (PSA-ACT) complex (UniProt P07288); assay: silicon nanowire FET (p-type), antibody on the wire; PSA-ACT 3.2 pg/ml
[8] = molecular target: prostate specific antigen (PSA) (UniProt P07288); assay: silicon nanowire FET (p-type), antibody on the wire; f-PSA 850 pg/ml
[9] = molecular target: prostate specific antigen (PSA) (UniProt P07288); assay: silicon nanowire FET (p-type), antibody on the wire; f-PSA 8.5 pg/ml
[10] = molecular target: prostate specific antigen (PSA) (UniProt P07288); assay: silicon nanowire FET (p-type), antibody on the wire; f-PSA 1700 pg/ml
[11] = molecular target: PSA-alpha-1-antichymotrypsin (PSA-ACT) complex (UniProt P07288); assay: silicon nanowire FET (p-type); mixture of f-PSA 0.85, PSA-ACT 3200 and free Ab1 1 x 10^7 pg/ml (f-PSA blocked by Ab1)
[12] = molecular target: PSA-alpha-1-antichymotrypsin (PSA-ACT) complex (UniProt P07288); assay: silicon nanowire FET (p-type); mixture of f-PSA 850, PSA-ACT 0.32 and free Ab1 1 x 10^7 pg/ml (f-PSA blocked by Ab1)
[13] = molecular target: PSA-alpha-1-antichymotrypsin (PSA-ACT) complex (UniProt P07288); assay: silicon nanowire FET (p-type); mixture of f-PSA 850, PSA-ACT 3200 and free Ab1 1 x 10^7 pg/ml (f-PSA blocked by Ab1)

With “monoclonal antibody anti-ACT-PSA (AbII, clone PSA1, abcam Inc.)” the Conductance Change, nS [1] was 124 nS, the Conductance Change, nS [2] was 143 nS and the Conductance Change, nS [3] was 50 nS. For the same substance, the Conductance Change, nS [4] was 118 nS, the Conductance Change, nS [5] was 19 nS and the Conductance Change, nS [6] was 10 nS. For the same substance, the Conductance Change, nS [7] was 67 nS, the Conductance Change, nS [8] was 132 nS and the Conductance Change, nS [9] was 81 nS. The Conductance Change, nS [10] was 154 nS, the Conductance Change, nS [11] was 138 nS and the Conductance Change, nS [12] was 15 nS. The Conductance Change, nS [13] was 140 nS.
